Measurements reported in patent publication US20240245805A1 (Orna Therapeutics, Inc., priority 2020, published 2024).

The molecules below were run on HEK293 cells. Conditions: circular RNA encoding Gluc with the listed IRES (UTR truncated to 675 nt) transfected into HEK293 cells; supernatant after 24 hours.
Type: cell-based, human

Row | Molecule | Expression (luminescence from secreted Gluc protein)
1 | Fipivirus E (nucleic acid, lipid formulation; Fipivirus E) CTCTTCCGATCTTGGGGGTTCGCCCCCATGTCTCATTTCAACTAGCCGTGTGTCTAGTTAACGCACCGCCTCACCCTGGTCGTTATCGGGTCGGTTCTTGCGACCGTTAGATCGTGAGCGTTTCTGAGGATCAGTTCGTATAAGTTCTCCGGTGTGGCGACCGTAAAATCGTCACGTCCCATGCAATAGATGACGTTAAACTCGTTTGCCAGTTACATAAAGGAATGTTGTTACTTTTAAATTGTCTGTTACATTTAACATCTTGCCAGTATGATGCTACTGTACACTACGGGTGTAGGAACCTTGTAGTGTGACGTATCACTCATATGTGGATGGGTGCTCCAGACCTTTATGGAAGCTCTCAGTTAGTAGTGATCCTTGACTTCATTGAGCCCTGGTAACAGTGGAAGTCAAGATGTATATGTTGCTCAACACACTTCGGTGCTACGAAGCTGTTTGTGGAAGTACTGGCGAGGTTCATTCTGAATCATATGTTTGTCACATAGTCAGGGAGTGCCGTCGCTTACGACGGACCCTTTTTCTTTATAATTACAAATCTGTGTCTCAAGTGTTGTTGGCTGGTTTTCTTCTTCTGTTTTCATTGTTCATATATATACGTCAGAGTGAAAGACTCGGTATATACAAAACTGATCCAGA | 1.10E+05
2 | Fipivirus C (nucleic acid, lipid formulation; Fipivirus C) CGCGGTTAAACCCGCGCAACCTTCTTTCAGCCGCGTCTGAGTAGCGCGGTTAGTCCTGATACACAGTTTCCTGTTGGGTACTGTGTCTTCGGGTGAATGCTCTTGTGTGAATGTTTTAGGCTGTTTAAGGGAAGCGTTTCCCCGTGCGCTGTGAGGGTTTCTCACGCTCTTTCGGGGTGCAGTCTCTTCTGTTGTTCATTAAGATGTATGGATGCACTGTTGTGAAGGATTTGTGAACTGGGGATCGACACCCCGTGAGGGGTGCCCCAGTGTCCATAGGAGTTTGCTGGAGAGGTGTGTTGCTGTAGTGACTATCCGTGACCTGGCATTCTAAGGTGTTGACCCCAACCTGTGAGGGTCTGGATCGCAGTGTTGAAGTGCTTTGGAGGGTTCAATGGGGTTTCTGTAGTGGATATTATGTGCTTGACGACTACTGGTACGAGTGTATTGGGGGTCTACATGTGTGA | 1.09E+05
3 | Hepatovirus D (nucleic acid, Hepatovirus D) DNA: CTTTGGATGCCCATAGTGCGGGGGTATAAATACCGCACTCCCTTTAGCTGTTCCGAGGGTATCGGAACCTATATGTTTGTTTTCTGTCTGTCTGTCAGCTTTATGTGTGCTCGTCCCCTTTAGGGCACTCATTTCAGCTTGCTTTCATTCTTTTCTTCCCCGGTTCTCACCTTACCGGAGGCACTGGCCGTTGCGCCCGGCGGGGTCAACCTAGTGATTAGCACTAGGCTGTAGGTGTCTAAAGTGGTGACATTAAGACTTGGTAACTGATTTCAGCACTGTTAACTGATGTTGGGGATGACTTGATTGATCTTCTGGAAGGGGTAGGCTACGGGTGAAACCCCTTATCTTAATACCACTATGTAGAGATAGATTCAGTAGGTTAAGGGCAGTGGATAAGGTTGAGTTCATTTTGGACAATAAACCTTCAACACTGGTGGACCCAATCTCACTGACCAGATGCTTTCTTGACTGATCCTTCAGAGGGGTGATTCTTCTGAATAGGTTGCCTTGACACTGATGCCTGAGACCCATTGGGTCGGGCCTTAAATCATGGAACTCCACTGGACTTTCATGGCCTAGCTTCTGCCTTAGACAGACTCTGGGGCCCCACGACCCTCTGGGCCCTTCGGGGTACTCAGGGGCATTTAGGTTTTTCCACAATTAAAAGAGTTA | 1.47E+06
4 | Hepatovirus H2 (nucleic acid, listed as Hepatovirus sp.) DNA: GTCATGTTTCTCTTTAAGAACACTCAATTTTGGCCATAAGTGAGACTCTTGTCGAACCTTTCATGTCAGGACCATGTTAGGGCCATTATCCTTTTCCCTGGGGCATTCTTCTTGCCCCTGTTTCATCTTTCTATCATCTTTCTTCCGGGCTCTCACAATGCCAATGGAGCGACCGATGCGCACGTCGGGGTTAACCCATGGATTAGCCATGGGCTGTAGCTGCTAAAAGTTGTGACTCCTGAAGCATACTATCAATGGTAGTAGATGTAACTGAAACACTGAAGCTTCTCTGATCTTGAAAGAAGGGTAGGCTACGGGTGAAACCCTTCAGGTTAATACTCATATTGAGAGATACCTTTGGTAGGTTAACGTTGGCGGATAATGTTGAGTTTAACGACAATAAACATTCAACGCCTGTGGGCGAACCTCACCAATTTCATGCTTTGAAGTGAATGTGCGTAGGGTCTCTATCGGAGATGCTATGTGGATGGTGCCCTCCCTGGAAACAGGTTGTAGGGGTACTCAGGTGCACTTAGGTTTCCACATTTTAAAGATTTTTC | 1.08E+05
5 | Fipivirus A (nucleic acid, lipid formulation; Fipivirus A) TGCGGGTAAACTCCCGCATGTGTGAATGAGGCGATGTCCCAGGAACTAACTGCCGATCCTGGTTTTAACTACGATCCGTATTTGTTACTAATGCGATATCCCCCCATTGTTTGCCTCCATGTTGTTTTCAACGCTTTTGGCCTTGAGTGTTATCAAGTGTTTTAGCGACATAGTGGGAAGCTACGGCTGCGTCCCCATTTTTGAGTGGCGACCCAGTTTTAGTGGCCACTCTGTCCCTGAACTGCGCTATAATGTGAATTTATGTTCACAAAAACGGACTGATGTAACTGTTAATGACTAAGGAATAGTACCTCACTGAAGTATCAAGACCCCGTTCGAGCGGTGTACATATATGGATGGAAACCTTGTCTGAGTCATCTCGAATACTAATCAATGAGGGATGTCGAGTAAGCATATCATGAACCACATAGAATAGTGGGGTTTCGGGGTTAGAGGCTCTCTGCAGCAATGTATCTCTAACACCATGGCCGAAATGAGAGATAGAGACCACGATGTTTGTGTGTAAGTAATGATGTGTGGAAAGAAAATTCTGAATGTTGGTATGATATCAGTCTAAGGGGAGTGGCTCACCTAAGAGCTACCCAAACATTTCACAGCAGACAACATAACGTACTGAGAGTAGTTGGAAGGTTCCAGAAATCAGT | 2.69E+05
6 | Hepatovirus I (nucleic acid, Hepatovirus I) DNA: GGCTGCCTGTGTCTCAGGGGTAAGTACTGGGGCCGCGTTGACCGTGCGGTACGGTTATGCTTTTAGATTAGGATGTCCGTCTGTCCGGCACTCTCTTTTGCTTAAAATGGCCTTAAATCCATGGGAGGCGTAACCATGGGCCCTTTGTTACCTAGACATGATTGCATTGGGGGCCGTCCTTGGGGCTTAGGCCCCAGCCATTTCTCTTGACTCGTCTAAGAGTTTACTTCATCCTTTTCTTTACTTTATTTTCCAGGCTCTCAGCATGCCGACGGCTCTGACCACTGCGCCCGGTGGGGTTAACTGCATGATTAGCATGCAGCTGTAGGAGTTAAAAGTGCTGACAGGCCAATTCTGACGTAAGTCCACTCTATATTAACTTGATCAAGTAAGGTTGATTGATCTTTGTGAGAGGGTAGGCTACGGGTGAAACCCTCTAGGTTAATACTCATATTGAGAGATACCTCCAGAAGGTGAAGGTTGGCGGATATTGGTGAGTTCTTTTAGGACAAAAACCTTTCAACGCCTGTGGGCCCACCTCACTGGCACAATGCTTTCATCCCCAATTGTGATGGGTAGTTTGGACTGAAATCAGGAGTAACCTGCCCTACGAGTTTAGGGGTAGTTCAGGGGTATTTAGGCTTCCACATTTGATAGAGTTTATGAGAGTGAGCC | 8.79E+05
7 | Limnipivirus C (nucleic acid, lipid formulation; Limnipivirus C) DNA: GTTTCTGAGCACTGGTAAGAGCTTAGACAAACGTTTTTAAAATTTATTTTCTCTGCAACTTTTGTTTGTGTTTATTTTTATTTGTTAATTTTGCGCCTAAGCATTTGTTGCGAAGTATTTGATTCATTAGTAATATTACTTATTGTTTATTTAGATGGTATTCAAAGTGGTGGGAGTATCGAACCCAAGCGTCGTATGCTATCTCCTTGAACAATTTTTAATCATTGCGAAGTGATCATTGAAAAGGATAGGTGTTTAAGAACTCAAAGAGTGTTAATAATGTTGGGTGACAGGTGTCCCCATAGAATTTATTAACATGATTTGGACTGGTTATCTAGTAAGAAGAACCATCGAACGCACGAGCGAGCATTGCTTGCGGGGCAGTTACCCTGCGTCGATGTAAGTGTGTACCGGGGGGTGCACATGTTGATTCTTTATGGCCTGATAGGGTGCGTCATTCGCGCCTAGATAATTAGTATAATGCGAATGGAATAAATTTAC | 1.35E+05
8 | Orivirus (nucleic acid, listed as Orivirus sp., lipid formulation) DNA: GGTCCCAGGCCAATATTCTTCGTAAGGCTTGGTTCCAATTTTCCACCACTCGTGTTTGGGTTCTGGCCTATGGTACCCAGAGGGGCGGTTTGGGGGAATTAACTCCCCCTCCCCTGTGGTCCTATACCACCCCACACCTCTGTGGGCTTTCTTTACTATCTTCTTGTTTTCCGACTTTTAAACACTAGGCAGGCGCGCCTAGTCATACACCGCCCGGCTGGTCTTTCCAGCTCTTGTGGGCGGTGCGCGCTGGTCCATCGTGCCCAGCGACATAGCACCTTGTGGACACCTCCGAACGCCCTCCCCTGTATGGGGTGGTGCCCAGGGGTTTCAGTGTGGTGACACACTCCCTGGGGCCCGAAAGGCTAGTGTGCAACAGGTGAGGTACAGCCAGCTGCCCCCGTGGCTGGAGGGACCAAGCTTGTGAAGCACACCTCACCTTCTTGGGGGTGGGCTAGTAAGTGGTGAAAGCATAGTGTCCGTGTCGCTGGCCAACACTTTGGGTCAAGTCCAGCCACTCAGTGAGTAGATGCCCAGGAGGTACCCCTAGTGGATCTGACTTGGGGCCTGTTACTTAATGCAGGTTAAAAACTATGAAAGCTGAGTAGTGTAGCCCGGCTGGTGGCTTCTCTTCCTTATTCATTCTATTTTATGGTGACAAACGCAACTGAAGCC | 6.09E+05
9 | Hepatovirus C (nucleic acid, Hepatovirus C) DNA: TTCAAAAGCCCCAGCGGGGTTTCATTACCCCGCTGTGGCTTTTGGACTTCCCTAGGATGGGGAAGTAAATTACCATCCTCGCGTTTGCCGTGCGTTAACGGCTACTTTTCTTCTAGCTGTAGAAGTAAAATTCAGCATGTTTTATGTTTGTTTGTCTTGTTTGTTATATACATTTTTACACTCCTACAAATGCACATGAAGAACAGTTTGTAGAGATTAACAAACGCTTAGCTGAACCTAGGTGGTGAATCTAGTAGTAAGATAAGTAGAGGAAGCTATACCTTAAGTTGGTTGGGCCCTCGTGTTTGCTCTATAAACAAAACCAAGTGAGTAGAGTGGATGAACAGTACTAAATCCCTGAGTACAGGGAACCTCACAGGTGTGATACACTTATGTCTATGTGACCTGGTTGGAGGTTGGGCGTGCCCTATGATACTGGAGTGGGAGATCTTTTGGGGAACCCACGTTTTCACACTGCCTGATAGGGTCTTGCCGAGAGACTCACTTGTTTCGGCTGTACTTGTAAC | 5.08E+05
